# Molecular target: human PD-L1 (endogenous, in the mixed leukocyte reaction of human CD4 T-cells and monocyte-derived dendritic … (human, UniProt Q9NZQ7 19-290))
# Assay: cell-based or functional assay
binder,measurement,value
"Antibody C (bispecific antibody, human IgG1, kappa, lambda, L234A L235A) heavy 1: not shown light 1: not shown heavy 2: not shown light 2: DIVMTQSPSSLSASVGDGVTITCQASQDIYNYLNWYQQKPGKAPKLLIYYASSIVSGVPSRFSGSGSGTDFTLTISSLQPEDFATYYCQQASSFPPTFGQGTKLEIKRTVAAPSVFIFPPSDEQLKSGTARVGCLLNNFYPREAKVQWKVDNALQSGNSQESVTEQDSKDSTYSLRSALTLSKADYEKHKVYACEVTHQGLSSPVTKSFNRGEC",IFN-γ levels in the mixed leukocyte reaction (MLR) at 4 nM antibody,~3 fold
same,IFN-γ levels in the mixed leukocyte reaction (MLR) at 8 nM antibody,~5 fold
